For series [1], the target named is T1, CS (CTC1-STN1) (Homo sapiens, UniProt Q2NKJ3;Q9H668 1-1217;1-368). As to the kind of experiment: smFRET; 2 nM protein, imaged immediately; dwell time 8.22 ± 0.64 (s; assigned from figure text), 43% lower than CST; lost after flushing; EMSA: 25 mM Tris-HCl pH 8.0, 100 mM NaCl, 1 mM DTT; 0.1 nM DNA, 30 min RT (Kd(app): 0.01 nM DNA, 18 h, 4 °C). smFRET: 25 mM Tris-HCl pH 8.0, 150 mM NaCl, 1 mM D. To be noted: protein: recombinant; tags: FLAG-CTC1, FLAG-STN1; copies: 1;1; label: strand 1 3'-Cy3; strand 2 5'-Cy5 and 3'-biotin; 18 bp duplex, 3' overhang 18 nt.
T1 sequence (Q2NKJ3 whole entry, chain 1 of 2): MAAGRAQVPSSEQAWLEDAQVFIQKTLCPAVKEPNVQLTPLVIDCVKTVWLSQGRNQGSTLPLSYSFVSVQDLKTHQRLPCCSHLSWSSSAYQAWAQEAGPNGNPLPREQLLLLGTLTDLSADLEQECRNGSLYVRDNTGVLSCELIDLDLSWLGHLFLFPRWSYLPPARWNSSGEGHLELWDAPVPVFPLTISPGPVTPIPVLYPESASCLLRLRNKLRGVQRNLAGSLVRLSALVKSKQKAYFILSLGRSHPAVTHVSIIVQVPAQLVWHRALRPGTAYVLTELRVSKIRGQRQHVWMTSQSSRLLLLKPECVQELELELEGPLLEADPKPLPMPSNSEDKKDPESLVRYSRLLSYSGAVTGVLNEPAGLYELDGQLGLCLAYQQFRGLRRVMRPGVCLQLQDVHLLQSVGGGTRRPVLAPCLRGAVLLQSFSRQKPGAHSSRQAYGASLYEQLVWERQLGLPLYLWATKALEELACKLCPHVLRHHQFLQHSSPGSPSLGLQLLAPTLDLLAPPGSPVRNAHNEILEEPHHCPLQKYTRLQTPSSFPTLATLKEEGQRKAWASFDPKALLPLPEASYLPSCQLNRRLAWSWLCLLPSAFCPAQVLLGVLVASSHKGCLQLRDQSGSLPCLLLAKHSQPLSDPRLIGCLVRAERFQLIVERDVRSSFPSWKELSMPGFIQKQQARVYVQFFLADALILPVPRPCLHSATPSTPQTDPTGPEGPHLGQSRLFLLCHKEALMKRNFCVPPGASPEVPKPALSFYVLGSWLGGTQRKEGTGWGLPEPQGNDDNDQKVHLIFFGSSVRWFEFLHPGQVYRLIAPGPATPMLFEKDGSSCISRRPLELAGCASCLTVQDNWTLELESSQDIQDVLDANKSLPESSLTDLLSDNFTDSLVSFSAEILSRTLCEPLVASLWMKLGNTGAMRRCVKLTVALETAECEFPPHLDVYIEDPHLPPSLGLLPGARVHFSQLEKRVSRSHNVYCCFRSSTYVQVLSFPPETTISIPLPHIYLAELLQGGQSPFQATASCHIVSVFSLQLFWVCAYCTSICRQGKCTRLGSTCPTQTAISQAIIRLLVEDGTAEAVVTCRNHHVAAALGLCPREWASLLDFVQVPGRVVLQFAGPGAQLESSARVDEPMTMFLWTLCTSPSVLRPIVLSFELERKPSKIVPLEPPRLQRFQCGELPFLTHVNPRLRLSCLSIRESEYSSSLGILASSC
T1 sequence (Q9H668 whole entry, chain 2 of 2): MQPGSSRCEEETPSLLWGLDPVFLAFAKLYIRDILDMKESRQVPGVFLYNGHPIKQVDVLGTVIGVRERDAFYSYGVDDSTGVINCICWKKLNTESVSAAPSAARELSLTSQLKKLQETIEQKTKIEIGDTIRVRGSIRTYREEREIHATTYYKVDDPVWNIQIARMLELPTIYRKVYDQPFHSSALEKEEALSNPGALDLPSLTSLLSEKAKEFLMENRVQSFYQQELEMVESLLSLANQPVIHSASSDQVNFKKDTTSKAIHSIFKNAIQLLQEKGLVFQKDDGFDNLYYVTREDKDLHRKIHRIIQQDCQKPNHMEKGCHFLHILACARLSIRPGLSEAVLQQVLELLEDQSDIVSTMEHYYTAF

For series [2], the target named is T2, CST (CTC1-STN1-TEN1) (Homo sapiens, UniProt Q2NKJ3;Q9H668;Q86WV5 1-1217;1-368;1-123). Description: smFRET; 2 nM protein; dwell time 14.32 ± 0.81 (s; assigned from figure text); EMSA: 25 mM Tris-HCl pH 8.0, 100 mM NaCl, 1 mM DTT; 0.1 nM DNA, 30 min RT (Kd(app): 0.01 nM DNA, 18 h, 4 °C). smFRET: 25 mM Tris-HCl pH 8.0, 150 mM NaCl, 1 mM D. To be noted: protein: recombinant; tags: FLAG-CTC1, FLAG-STN1, untagged TEN1; copies: 1;1;1; label: strand 1 3'-Cy3; strand 2 5'-Cy5 and 3'-biotin; 18 bp duplex, 3' overhang 18 nt. On the technique in general: In EMSA bound probe runs differently from free probe, usually more slowly.
T2 sequence (Q2NKJ3 whole entry, chain 1 of 3): as the sequence (Q2NKJ3 whole entry, chain 1 of 2) above
T2 sequence (Q9H668 whole entry, chain 2 of 3): as the sequence (Q9H668 whole entry, chain 2 of 2) above
T2 sequence (Q86WV5 whole entry, chain 3 of 3): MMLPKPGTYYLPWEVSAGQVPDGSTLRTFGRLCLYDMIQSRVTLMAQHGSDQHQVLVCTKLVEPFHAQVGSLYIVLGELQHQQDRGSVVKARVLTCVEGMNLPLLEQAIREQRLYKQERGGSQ

Series [3] deals with T2, CST (CTC1-STN1-TEN1). As to the kind of experiment: EMSA; apparent Kd; EMSA: 25 mM Tris-HCl pH 8.0, 100 mM NaCl, 1 mM DTT; 0.1 nM DNA, 30 min RT (Kd(app): 0.01 nM DNA, 18 h, 4 °C). smFRET: 25 mM Tris-HCl pH 8.0, 150 mM NaCl, 1 mM D. To be noted: protein: recombinant; tags: FLAG-CTC1, FLAG-STN1, untagged TEN1; copies: 1;1;1; label: 32P.
For series [4], the target named is T1, CS (CTC1-STN1). The series is described as above. To be noted: protein: recombinant; tags: FLAG-CTC1, FLAG-STN1; copies: 1;1; label: 32P.
In series [5] the target is T2, CST (CTC1-STN1-TEN1). Description: EMSA; EMSA: 25 mM Tris-HCl pH 8.0, 100 mM NaCl, 1 mM DTT; 0.1 nM DNA, 30 min RT (Kd(app): 0.01 nM DNA, 18 h, 4 °C). smFRET: 25 mM Tris-HCl pH 8.0, 150 mM NaCl, 1 mM D. To be noted: protein: recombinant; tags: FLAG-CTC1, FLAG-STN1, untagged TEN1; copies: 1;1;1; label: 32P; hairpin, 15 bp stem, T5 loop, 3' overhang 18 nt.
Series [6] deals with T1, CS (CTC1-STN1). Description: EMSA; about 5-fold less efficient than CST; EMSA: 25 mM Tris-HCl pH 8.0, 100 mM NaCl, 1 mM DTT; 0.1 nM DNA, 30 min RT (Kd(app): 0.01 nM DNA, 18 h, 4 °C). smFRET: 25 mM Tris-HCl pH 8.0, 150 mM NaCl, 1 mM D. To be noted: protein: recombinant; tags: FLAG-CTC1, FLAG-STN1; copies: 1;1; label: 32P; hairpin, 15 bp stem, T5 loop, 3' overhang 18 nt.

B1: smFRET junction, 18 nt overhang (dsDNA)
DNA 1: TGGCGACGGCAGCGAGGCAGCGTATCCGTTCAGTTG
DNA 2: GCCTCGCTGCCGTCGCCA
With B1, the binding result with CS (CTC1-STN1) [1] and with CST (CTC1-STN1-TEN1) [2] was “binds” each time.
For the molecule GGTTAGGGTTAGGGTTAGGGTTAGGGTTAGGGTTAG (ssDNA) [Tel-36], the Kd with CST (CTC1-STN1-TEN1) [3] turned out to be 0.02 ± 0.03 nM; with CS (CTC1-STN1) [4], 0.33 ± 0.08 nM.
Turning to GGTTAGGGTTAGGGTTAG (ssDNA) [Tel-18], the Kd turned out to be 0.21 ± 0.07 nM in the series with CST (CTC1-STN1-TEN1) [3] and 1.04 ± 0.46 nM with CS (CTC1-STN1) [4].
Regarding AGCGTATCCGTTCAGTTGAGCGTATCCGTTCAGTTGAGCGTATCCGTT (ssDNA) [NonTel-48], the Kd worked out at 0.01 ± 0.005 nM with CST (CTC1-STN1-TEN1) [3] and 0.08 ± 0.05 nM in the series with CS (CTC1-STN1) [4].

B2: NonTel fold-back 18 nt 3' overhang (structured_DNA)
DNA: ACGACTGCATCTAGCTTTTTGCTAGATGCAGTCGTAGCGTATCCGTTCAGTTG
B2: the binding result with CST (CTC1-STN1-TEN1) [5] and with CS (CTC1-STN1) [6] was “binds” throughout.

The values are drawn from PMC6053418, “CTC1-STN1 terminates telomerase while STN1-TEN1 enables C-strand synthesis during telomere replication in colon cancer cells”.
